The record followed here is patent US20210063414A1, “METHODS FOR PREVENTING AND/OR TREATING BONE LOSS CONDITIONS BY MODULATING IRISIN” (Dana-Farber Cancer Institute, Inc., priority 2018, published 2021).

Holding throughout (experiment): Crosslinking/co-immunoprecipitation/mass spectrometry (TMT quantitative proteomics) to identify irisin receptors
Common to all, as to format: binding

The target of assay [1] is T1, MLO-Y4 cell surface proteins (Mus musculus, UniProt P41216).
T1 construct: endogenous in cells; host or cells: MLO-Y4
T1 sequence (P41216 1-699): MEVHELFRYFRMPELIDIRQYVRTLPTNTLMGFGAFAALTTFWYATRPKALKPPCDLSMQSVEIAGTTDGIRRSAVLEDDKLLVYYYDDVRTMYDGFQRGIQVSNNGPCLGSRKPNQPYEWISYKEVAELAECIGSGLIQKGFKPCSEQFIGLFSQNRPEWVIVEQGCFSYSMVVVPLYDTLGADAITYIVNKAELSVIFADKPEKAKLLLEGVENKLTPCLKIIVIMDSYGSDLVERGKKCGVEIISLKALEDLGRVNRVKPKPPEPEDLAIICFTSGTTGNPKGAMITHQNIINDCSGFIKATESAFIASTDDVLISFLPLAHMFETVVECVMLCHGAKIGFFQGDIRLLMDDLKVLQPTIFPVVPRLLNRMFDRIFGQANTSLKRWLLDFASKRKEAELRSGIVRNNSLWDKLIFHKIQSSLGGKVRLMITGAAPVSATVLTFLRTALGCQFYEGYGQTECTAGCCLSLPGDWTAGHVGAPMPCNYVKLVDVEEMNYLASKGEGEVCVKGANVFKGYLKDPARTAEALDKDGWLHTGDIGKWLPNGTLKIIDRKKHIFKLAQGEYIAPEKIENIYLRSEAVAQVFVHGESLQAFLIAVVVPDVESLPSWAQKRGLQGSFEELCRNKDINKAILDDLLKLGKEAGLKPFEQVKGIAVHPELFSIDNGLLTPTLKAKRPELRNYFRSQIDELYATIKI
The conditions noted are these: co-precipitated protein Acsl1 (ACSL1_MOUSE). The protocol: (§1) MLO-Y4 cells were seeded on 30×150 mm type-I collagen coated dishes as described in cell culture experiment. At 60% cell density, medium was switched to FreeStyle™ 293 Expression medium. After 4 hours incubation, the cells were chilled on ice for 10 minutes, followed by treatment of 10 nM his-tag irisin or his-tag adipsin for 20 minutes. The cells were then incubated with 1.5 mM DTSSP for 30 minutes on ice to do cross-linking, after washing with 15 ml cold PBS twice. The cross-linking was quenched by addition of a final concentration of 20 mM Tris-pH 7.5. The cells were then harvested and homogenized in 1 ml RIPA buffer containing proteaseinhibitor cocktailand phosphatase-inhibitor cocktail. Whole-cell lysates were homogenized by 10 times passages through a 22G needle fitted to a 3 ml syringe. Homogenized samples were rotated gently in cold room for 20 minutes followed by 15,000×g centrifugation for 10 minutes. After addition of a final concentration of 10 mM imidazole, supernatants were incubated with 100 μl Ni-NTA agarose for 1 hour. After centrifugation at 500×g for 1 minute, the supernatants were aspirated and 1 ml cold RIPA buffer containing 10 mM imidazole were added to the agarose. After 10 minutes rotation in cold room, the supernatants were aspirated and 1 ml cold RIPA buffer containing 30 mM imidazole were added to the agarose. After repeating the washing 3 times, 0.8 ml RIPA buffer containing 250 mM imidazole was added and the agarose was gently rotated in a cold room for 20 minutes. After centrifugation at 1000×g for 2 minutes, the supernatants were transferred to 1.5 ml tube and incubated with 100 μl 0.2% sodium deoxycholate and 100 μl 10% trichloroacetic acid in ice for 1 hour. After centrifugation at 12,000×g for 10 minutes at 4° C., the supernatants were removed and 1 ml cold acetone was added to the pellets followed by vortexing for 10 seconds. After one more washing with cold acetone, the pellets were dried at 37° C., and 39 μl PBS and 13 μl 4×NuPAGE LDS were added to the pellets with a final concentration of 5 mM DTT. Solubilized proteins were incubated at 65° C. for 20 minutes followed by incubation with a final concentration of 14 mM iodoacetamide for 45 minutes in the dark. 38 μl samples were loaded to 4-12% gradient SDS-PAGE for separation followed by Coomassie Blue staining. The gels were submitted to quantitative proteomics.
(§2) For in-gel digestions, gels were stained with Coomassie Blue and were excised into 8 equal segments for control and irisin lanes. Gel pieces were destained and dehydrated with 100% acetonitrile, vacuumed dried, and digested in 25 mM HEPES (pH 8.5) with 500 ng sequencing grade trypsin (Promega) and incubated for an overnight at 37° C. (Shevchenko et al. (1996) Anal. Chem. 68:850-858). Digests were treated with 1% formic acid and purified using C18 Stage-Tips as previously described (Rappsilber et al. (2007) Nat. Protoc. 2:1896-1906). Peptides were eluted with 70% acetonitrile and 1% formic acid, then dried using a speedvac. Isobaric labeling of digested peptides was accomplished using 6-plex tandem mass tag (TMT) reagents (Thermo Fisher Scientific, Rockford, Ill.). Reagents, 5.0 mg, were dissolved in 252 μl acetonitrile (ACN) and 5 μl of the solution was added to the digested peptides dissolved in 25 μl of 200 mM HEPES, pH 8.5. After 1 hour at room temperature, the reaction was quenched by adding 1 μl of 5% hydroxylamine. Labeled peptides were combined and acidified prior to C18 Stage-Tips desalting.
(§3) All LC-MS/MS experiments were performed on an Orbitrap Fusion™ Lumos mass spectrometer (Thermo Fisher Scientific, San Jose, Calif., USA) coupled with a Proxeon EASY-nLC™ 1200 LC pump (Thermo Fisher Scientific). Peptides were separated on a 100 μm inner diameter microcapillary column packed with 35 cm of Accucore™ C18 resin (1.8 μm, 100 Å, Thermo Fisher Scientific). […]

Assay [2] has as its target T2, MLO-Y4 cell surface proteins (Mus musculus, UniProt Q6NWW9).
T2 construct: endogenous in cells; host or cells: MLO-Y4
The conditions noted are these: TMT ratio, Fndc3b Fibronectin type III domain-containing protein 3B. The protocol: as §1, §2, §3

Assay [3] deals with T3, MLO-Y4 cell surface proteins (Mus musculus, UniProt Q8VHN7).
T3 construct: endogenous in cells; host or cells: MLO-Y4
The following applies: co-precipitated protein Gpr98 (GPR98_MOUSE). The protocol: as §1, §2, §3

For assay [4], the target named is T4, MLO-Y4 cell surface proteins (Mus musculus, UniProt Q99LC5).
T4 construct: endogenous in cells; host or cells: MLO-Y4
T4 sequence (Q99LC5 20-333): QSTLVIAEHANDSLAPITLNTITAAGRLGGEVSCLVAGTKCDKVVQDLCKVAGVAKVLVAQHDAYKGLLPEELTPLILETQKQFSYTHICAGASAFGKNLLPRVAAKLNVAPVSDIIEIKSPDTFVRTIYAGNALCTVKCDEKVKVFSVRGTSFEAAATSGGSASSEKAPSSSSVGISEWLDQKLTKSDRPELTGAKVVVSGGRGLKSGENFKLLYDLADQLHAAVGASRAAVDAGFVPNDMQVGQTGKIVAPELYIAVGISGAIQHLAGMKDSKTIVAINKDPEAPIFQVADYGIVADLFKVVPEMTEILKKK
The conditions noted are these: co-precipitated protein Etfa (ETFA_MOUSE). The protocol:
as §1, §2, §3

T2 sequence (Q6NWW9 whole entry): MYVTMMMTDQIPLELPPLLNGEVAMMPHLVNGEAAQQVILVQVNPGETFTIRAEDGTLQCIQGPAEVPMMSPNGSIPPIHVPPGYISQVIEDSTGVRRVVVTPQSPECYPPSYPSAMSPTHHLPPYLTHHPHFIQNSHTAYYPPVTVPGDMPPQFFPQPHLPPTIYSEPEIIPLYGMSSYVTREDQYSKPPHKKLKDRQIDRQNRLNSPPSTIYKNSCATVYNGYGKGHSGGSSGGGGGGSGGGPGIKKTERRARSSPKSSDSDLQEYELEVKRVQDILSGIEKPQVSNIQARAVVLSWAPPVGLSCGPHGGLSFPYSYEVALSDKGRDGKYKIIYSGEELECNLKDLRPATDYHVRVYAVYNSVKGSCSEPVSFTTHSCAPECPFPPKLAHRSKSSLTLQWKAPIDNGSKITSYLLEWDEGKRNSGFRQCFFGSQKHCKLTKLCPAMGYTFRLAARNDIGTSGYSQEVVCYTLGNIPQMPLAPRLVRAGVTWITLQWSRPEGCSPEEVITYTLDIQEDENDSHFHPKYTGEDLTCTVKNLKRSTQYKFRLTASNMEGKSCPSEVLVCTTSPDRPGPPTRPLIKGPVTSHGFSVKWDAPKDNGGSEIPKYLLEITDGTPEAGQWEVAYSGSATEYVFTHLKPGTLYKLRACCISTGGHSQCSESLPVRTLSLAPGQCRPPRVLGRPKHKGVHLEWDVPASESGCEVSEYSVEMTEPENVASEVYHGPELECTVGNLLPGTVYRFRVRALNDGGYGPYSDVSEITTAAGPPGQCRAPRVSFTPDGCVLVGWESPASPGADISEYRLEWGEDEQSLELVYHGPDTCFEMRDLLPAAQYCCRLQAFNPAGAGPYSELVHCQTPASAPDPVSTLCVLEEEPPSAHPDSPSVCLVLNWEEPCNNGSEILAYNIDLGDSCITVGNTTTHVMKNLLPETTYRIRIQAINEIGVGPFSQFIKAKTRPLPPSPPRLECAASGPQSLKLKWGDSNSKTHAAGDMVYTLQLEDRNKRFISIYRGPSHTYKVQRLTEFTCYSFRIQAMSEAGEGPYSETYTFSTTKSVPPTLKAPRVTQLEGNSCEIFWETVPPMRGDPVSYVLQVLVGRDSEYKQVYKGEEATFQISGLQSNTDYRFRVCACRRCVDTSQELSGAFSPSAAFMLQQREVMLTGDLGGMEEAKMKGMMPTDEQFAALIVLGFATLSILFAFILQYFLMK

B1: irisin: secreted cleaved form of FNDC5; recombinant human/mouse irisin with C-terminal his tag produced in HEK293 cells (protein)
chain: DSPSAPVNVTVRHLKANSAVVSWDVLEDEVVIGFAISQQKKDVRMLRFIQEVNTTTRSCALWDLEEDTEYIVHVQAISIQGQSPASEPVLFKTPREAEKMASKNKDEVTMKE
modifications: left off: small tags and cut ends
notes: secreted cleaved form of FNDC5; recombinant human/mouse irisin with C-terminal his tag produced in HEK293 cells
As for B1, the TMT signal-to-noise ratio is recorded as 192.15 in assay [1], 249.388 in assay [3] and 44.9816 in assay [4]. In addition, the entries for the “irisin/adipsin TMT signal-to-noise ratio” value in assay [1], in assay [3] and in assay [4] were 0.532, 0.403 and 0.561, respectively. Also, the irsin/adipsin in assay [2] is recorded as 2.88.
